Laboratory results reported in patent CN113817050A.

Target: 抗原(Biacore 8K表面等离子共振实验，未指明)
Assay: SPR, Biacore 8K; antigen and format not given

B1: 抗SARS-CoV-2的单克隆抗体1H8 (antibody, V domains shown)
VH: EVQLVESGGGLVQPGGSLRLSCAASEITVSSNYMNWVRQAPGKGLEWVSVIYSGGTTYYADSVKGRFTISRDNSENTLYLQMNSLRAEDTAVYYCARDLMEVGGMDVWGQGTTVTVSS
VL: DIVMTQSPSSLSASVGDRVTITCRASQGVSNYLAWYQQKPGKVPKLLIYAASTLQSGVPSRFSGSRSGTDFTLTISSLQPEDVATYYCQNYNSAPFAFGPGTKVEIK
Kd: 18.7 nM | koff: 0.00138 s⁻¹ | kon: 73600 M⁻¹ s⁻¹
